Measured values taken from patent US20140087995A1 (published 2014).
Each block holds one binder with its values, some of them ahead of it. Numbered stars: 1 amine (or outer) side, 2 acyl side, 3 side chain; on linkers, the order of the positions; unused ones are H or OH. Bridge positions count the residues as written; N and C are the ends. Side chains are listed from the residue outwards. Ends that are not written are not given here. * marks the point of attachment. C20 diacid = O=C(O)CCCCCCCCCCCCCCCCCCC(=O)*; γGlu = O=C(O)[C@H](CCC(=O)[*:2])N[*:1]; AEEA = NCCOCCOCC(=O)O

Tests used:
rat calcitonin receptor [1] = molecular target: T1, rat calcitonin receptor (rat, UniProt P32214 25-516); test: ratio of binding IC50s: rat calcitonin receptor over rat amylin receptor (reference)
T1 construct: whole, on cells; also called rCTR; rat calcitonin (a) receptor
T1 sequence (looked up): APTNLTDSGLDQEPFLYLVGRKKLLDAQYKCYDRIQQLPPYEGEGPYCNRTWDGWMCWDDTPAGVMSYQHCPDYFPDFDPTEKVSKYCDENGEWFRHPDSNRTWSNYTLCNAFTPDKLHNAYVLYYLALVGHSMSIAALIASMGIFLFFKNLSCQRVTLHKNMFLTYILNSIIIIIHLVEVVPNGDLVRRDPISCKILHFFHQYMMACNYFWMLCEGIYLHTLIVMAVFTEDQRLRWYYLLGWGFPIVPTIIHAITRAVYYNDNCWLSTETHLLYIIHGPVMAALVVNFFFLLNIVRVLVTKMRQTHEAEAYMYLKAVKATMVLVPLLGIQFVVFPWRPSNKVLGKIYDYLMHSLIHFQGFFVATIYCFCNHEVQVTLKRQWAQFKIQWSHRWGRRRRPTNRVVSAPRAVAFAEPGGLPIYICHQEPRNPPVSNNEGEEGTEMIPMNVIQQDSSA

[2] = molecular target: T2, human calcitonin receptor (human, UniProt P30988 25-474); test: ratio of binding IC50s: human calcitonin receptor over human amylin receptor (reference)
T2 construct: whole, on cells; also called hCTR; hCT
T2 sequence (looked up): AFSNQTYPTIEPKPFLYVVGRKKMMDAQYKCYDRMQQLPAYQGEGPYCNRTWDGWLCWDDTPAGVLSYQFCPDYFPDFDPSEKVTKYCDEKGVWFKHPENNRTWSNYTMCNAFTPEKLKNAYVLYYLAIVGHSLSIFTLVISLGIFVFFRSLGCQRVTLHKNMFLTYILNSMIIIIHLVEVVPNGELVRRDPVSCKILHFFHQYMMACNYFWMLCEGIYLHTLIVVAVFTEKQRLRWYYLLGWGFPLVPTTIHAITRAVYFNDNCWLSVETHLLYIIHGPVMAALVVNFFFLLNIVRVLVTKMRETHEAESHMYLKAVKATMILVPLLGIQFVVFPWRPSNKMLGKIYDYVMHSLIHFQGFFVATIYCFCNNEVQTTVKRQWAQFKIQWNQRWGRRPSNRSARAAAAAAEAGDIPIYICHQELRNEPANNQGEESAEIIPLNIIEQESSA
Summary of the method: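 Competition binding by SPA with cell membranes (35 ng/μL) and SPA beads in 50 mM Hepes pH 7.4 with 1 mM CaCl2, 5 mM MgCl2, 0.1% OA and 0.02% Tween20. Incubated 120 min at 25 °C with shaking, then counted.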

rat calcitonin receptor [3] = molecular target: T1, rat calcitonin receptor; test: SPA competition with 125I-calcitonin, membranes of BHK cells with rat calcitonin receptor (Assay VIII)
[4] = molecular target: T3, rat amylin receptor (rat calcitonin receptor + rat RAMP 3) (rat, UniProt P32214 25-516; Q9JJ73 23-147); test: SPA competition with 125I-rat amylin, membranes of BHK cells with rat calcitonin receptor + rat RAMP3 (Assay VI)
T3 construct: whole, on cells; also called rAmylin-R; rat amylin 3(a) receptor
T3 sequence (looked up) 1: T1 sequence (looked up)
T3 sequence (looked up) 2: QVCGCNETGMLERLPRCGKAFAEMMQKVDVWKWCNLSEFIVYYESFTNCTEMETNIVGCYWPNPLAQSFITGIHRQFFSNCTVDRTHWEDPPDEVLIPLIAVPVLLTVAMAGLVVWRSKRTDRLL

B1: N^ε1-[2-[2-[2-[[(4S)-4-carboxy-4-(19-carboxynonadecanoylamino)butanoyl]amino]ethoxy]ethoxy]acetyl]-[Thr14,Arg17,Pro21,Pro27,Pro31]-h-amylin (peptide)
peptide: K([AEEA-γGlu-C20 diacid])CNTATCATQRLATFLRHSSPNFGAIPSSTPVGSNTY-NH2
modifications: disulfide 2-7; N-terminus assumed
SMILES: CC[C@H](C)[C@H](NC(=O)[C@H](C)NC(=O)CNC(=O)[C@H](Cc1ccccc1)NC(=O)[C@H](CC(N)=O)NC(=O)[C@@H]1CCCN1C(=O)[C@H](CO)NC(=O)[C@H](CO)NC(=O)[C@H](Cc1c[nH]cn1)NC(=O)[C@H](CCCNC(=N)N)NC(=O)[C@H](CC(C)C)NC(=O)[C@H](Cc1ccccc1)NC(=O)[C@@H](NC(=O)[C@H](C)NC(=O)[C@H](CC(C)C)NC(=O)[C@H](CCCNC(=N)N)NC(=O)[C@H](CCC(N)=O)NC(=O)[C@@H](NC(=O)[C@H](C)NC(=O)[C@@H]1CSSC[C@H](NC(=O)[C@@H](N)CCCCNC(=O)COCCOCCNC(=O)CC[C@H](NC(=O)CCCCCCCCCCCCCCCCCCC(=O)O)C(=O)O)C(=O)N[C@@H](CC(N)=O)C(=O)N[C@@H]([C@@H](C)O)C(=O)N[C@@H](C)C(=O)N[C@@H]([C@@H](C)O)C(=O)N1)[C@@H](C)O)[C@@H](C)O)C(=O)N1CCC[C@H]1C(=O)N[C@@H](CO)C(=O)N[C@@H](CO)C(=O)N[C@H](C(=O)N1CCC[C@H]1C(=O)N[C@H](C(=O)NCC(=O)N[C@@H](CO)C(=O)N[C@@H](CC(N)=O)C(=O)N[C@H](C(=O)N[C@@H](Cc1ccc(O)cc1)C(N)=O)[C@@H](C)O)C(C)C)[C@@H](C)O
notes: synthetic analogue of human amylin; also called compound 75
Ratio rCT/rAmylin binding (rat calcitonin receptor [1]): 110 | Ratio hCT/hAmylin binding [2]: 91.4 | IC50 (rat calcitonin receptor [3]): 442 nM | IC50 [4]: 4.03 nM

B3: N^ε1-[(4S)-4-carboxy-4-(19-carboxynonadecanoylamino)butanoyl]-[Arg14,Arg17,Pro21,Pro27,Pro31]-h-amylin (peptide)
peptide: K([γGlu-C20 diacid])CNTATCATQRLARFLRHSSPNFGAIPSSTPVGSNTY-NH2
modifications: disulfide 2-7; N-terminus assumed
SMILES: CC[C@H](C)[C@H](NC(=O)[C@H](C)NC(=O)CNC(=O)[C@H](Cc1ccccc1)NC(=O)[C@H](CC(N)=O)NC(=O)[C@@H]1CCCN1C(=O)[C@H](CO)NC(=O)[C@H](CO)NC(=O)[C@H](Cc1c[nH]cn1)NC(=O)[C@H](CCCNC(=N)N)NC(=O)[C@H](CC(C)C)NC(=O)[C@H](Cc1ccccc1)NC(=O)[C@H](CCCNC(=N)N)NC(=O)[C@H](C)NC(=O)[C@H](CC(C)C)NC(=O)[C@H](CCCNC(=N)N)NC(=O)[C@H](CCC(N)=O)NC(=O)[C@@H](NC(=O)[C@H](C)NC(=O)[C@@H]1CSSC[C@H](NC(=O)[C@@H](N)CCCCNC(=O)CC[C@H](NC(=O)CCCCCCCCCCCCCCCCCCC(=O)O)C(=O)O)C(=O)N[C@@H](CC(N)=O)C(=O)N[C@@H]([C@@H](C)O)C(=O)N[C@@H](C)C(=O)N[C@@H]([C@@H](C)O)C(=O)N1)[C@@H](C)O)C(=O)N1CCC[C@H]1C(=O)N[C@@H](CO)C(=O)N[C@@H](CO)C(=O)N[C@H](C(=O)N1CCC[C@H]1C(=O)N[C@H](C(=O)NCC(=O)N[C@@H](CO)C(=O)N[C@@H](CC(N)=O)C(=O)N[C@H](C(=O)N[C@@H](Cc1ccc(O)cc1)C(N)=O)[C@@H](C)O)C(C)C)[C@@H](C)O
notes: synthetic analogue of human amylin; also called compound 63
Ratio rCT/rAmylin binding (rat calcitonin receptor [1]): 35.6 | Ratio hCT/hAmylin binding [2]: 157 | IC50 (rat calcitonin receptor [3]): 124 nM | IC50 [4]: 3.48 nM

B4: N^ε1-[(4S)-4-carboxy-4-(19-carboxynonadecanoylamino)butanoyl]-[Arg14,Arg17,Pro21,Pro27]-h-amylin (peptide)
peptide: K([γGlu-C20 diacid])CNTATCATQRLARFLRHSSPNFGAIPSSTNVGSNTY-NH2
modifications: disulfide 2-7; N-terminus assumed
SMILES: CC[C@H](C)[C@H](NC(=O)[C@H](C)NC(=O)CNC(=O)[C@H](Cc1ccccc1)NC(=O)[C@H](CC(N)=O)NC(=O)[C@@H]1CCCN1C(=O)[C@H](CO)NC(=O)[C@H](CO)NC(=O)[C@H](Cc1c[nH]cn1)NC(=O)[C@H](CCCNC(=N)N)NC(=O)[C@H](CC(C)C)NC(=O)[C@H](Cc1ccccc1)NC(=O)[C@H](CCCNC(=N)N)NC(=O)[C@H](C)NC(=O)[C@H](CC(C)C)NC(=O)[C@H](CCCNC(=N)N)NC(=O)[C@H](CCC(N)=O)NC(=O)[C@@H](NC(=O)[C@H](C)NC(=O)[C@@H]1CSSC[C@H](NC(=O)[C@@H](N)CCCCNC(=O)CC[C@H](NC(=O)CCCCCCCCCCCCCCCCCCC(=O)O)C(=O)O)C(=O)N[C@@H](CC(N)=O)C(=O)N[C@@H]([C@@H](C)O)C(=O)N[C@@H](C)C(=O)N[C@@H]([C@@H](C)O)C(=O)N1)[C@@H](C)O)C(=O)N1CCC[C@H]1C(=O)N[C@@H](CO)C(=O)N[C@@H](CO)C(=O)N[C@H](C(=O)N[C@@H](CC(N)=O)C(=O)N[C@H](C(=O)NCC(=O)N[C@@H](CO)C(=O)N[C@@H](CC(N)=O)C(=O)N[C@H](C(=O)N[C@@H](Cc1ccc(O)cc1)C(N)=O)[C@@H](C)O)C(C)C)[C@@H](C)O
notes: synthetic analogue of human amylin; also called compound 83
Ratio rCT/rAmylin binding (rat calcitonin receptor [1]): 49.7 | Ratio hCT/hAmylin binding [2]: 146 | IC50 (rat calcitonin receptor [3]): 140 nM | IC50 [4]: 2.83 nM

These reach a lower IC50 (rat calcitonin receptor [3]). Values come first.

Ratio rCT/rAmylin binding (rat calcitonin receptor [1]): 93.2 | Ratio hCT/hAmylin binding [2]: 82.4 | IC50 (rat calcitonin receptor [3]): 108 nM | IC50 [4]: 1.16 nM
B2: N^ε1-[(4S)-4-carboxy-4-(19-carboxynonadecanoylamino)butanoyl]-[Arg14,Arg17,Pro21,Pro27,Pro34]-h-amylin (peptide)
peptide: K([γGlu-C20 diacid])CNTATCATQRLARFLRHSSPNFGAIPSSTNVGPNTY-NH2
modifications: disulfide 2-7; N-terminus assumed
SMILES: CC[C@H](C)[C@H](NC(=O)[C@H](C)NC(=O)CNC(=O)[C@H](Cc1ccccc1)NC(=O)[C@H](CC(N)=O)NC(=O)[C@@H]1CCCN1C(=O)[C@H](CO)NC(=O)[C@H](CO)NC(=O)[C@H](Cc1c[nH]cn1)NC(=O)[C@H](CCCNC(=N)N)NC(=O)[C@H](CC(C)C)NC(=O)[C@H](Cc1ccccc1)NC(=O)[C@H](CCCNC(=N)N)NC(=O)[C@H](C)NC(=O)[C@H](CC(C)C)NC(=O)[C@H](CCCNC(=N)N)NC(=O)[C@H](CCC(N)=O)NC(=O)[C@@H](NC(=O)[C@H](C)NC(=O)[C@@H]1CSSC[C@H](NC(=O)[C@@H](N)CCCCNC(=O)CC[C@H](NC(=O)CCCCCCCCCCCCCCCCCCC(=O)O)C(=O)O)C(=O)N[C@@H](CC(N)=O)C(=O)N[C@@H]([C@@H](C)O)C(=O)N[C@@H](C)C(=O)N[C@@H]([C@@H](C)O)C(=O)N1)[C@@H](C)O)C(=O)N1CCC[C@H]1C(=O)N[C@@H](CO)C(=O)N[C@@H](CO)C(=O)N[C@H](C(=O)N[C@@H](CC(N)=O)C(=O)N[C@H](C(=O)NCC(=O)N1CCC[C@H]1C(=O)N[C@@H](CC(N)=O)C(=O)N[C@H](C(=O)N[C@@H](Cc1ccc(O)cc1)C(N)=O)[C@@H](C)O)C(C)C)[C@@H](C)O
notes: synthetic analogue of human amylin; also called compound 65

Ratio rCT/rAmylin binding (rat calcitonin receptor [1]): 21.5 | Ratio hCT/hAmylin binding [2]: 46.1 | IC50 (rat calcitonin receptor [3]): 35.5 nM | IC50 [4]: 1.65 nM
B5: N^ε1-[(4S)-4-carboxy-4-(19-carboxynonadecanoylamino)butanoyl]-[Arg17,Pro21,Pro27,Arg34]-h-amylin (peptide)
peptide: K([γGlu-C20 diacid])CNTATCATQRLANFLRHSSPNFGAIPSSTNVGRNTY-NH2
modifications: disulfide 2-7; N-terminus assumed
SMILES: CC[C@H](C)[C@H](NC(=O)[C@H](C)NC(=O)CNC(=O)[C@H](Cc1ccccc1)NC(=O)[C@H](CC(N)=O)NC(=O)[C@@H]1CCCN1C(=O)[C@H](CO)NC(=O)[C@H](CO)NC(=O)[C@H](Cc1c[nH]cn1)NC(=O)[C@H](CCCNC(=N)N)NC(=O)[C@H](CC(C)C)NC(=O)[C@H](Cc1ccccc1)NC(=O)[C@H](CC(N)=O)NC(=O)[C@H](C)NC(=O)[C@H](CC(C)C)NC(=O)[C@H](CCCNC(=N)N)NC(=O)[C@H](CCC(N)=O)NC(=O)[C@@H](NC(=O)[C@H](C)NC(=O)[C@@H]1CSSC[C@H](NC(=O)[C@@H](N)CCCCNC(=O)CC[C@H](NC(=O)CCCCCCCCCCCCCCCCCCC(=O)O)C(=O)O)C(=O)N[C@@H](CC(N)=O)C(=O)N[C@@H]([C@@H](C)O)C(=O)N[C@@H](C)C(=O)N[C@@H]([C@@H](C)O)C(=O)N1)[C@@H](C)O)C(=O)N1CCC[C@H]1C(=O)N[C@@H](CO)C(=O)N[C@@H](CO)C(=O)N[C@H](C(=O)N[C@@H](CC(N)=O)C(=O)N[C@H](C(=O)NCC(=O)N[C@@H](CCCNC(=N)N)C(=O)N[C@@H](CC(N)=O)C(=O)N[C@H](C(=O)N[C@@H](Cc1ccc(O)cc1)C(N)=O)[C@@H](C)O)C(C)C)[C@@H](C)O
notes: synthetic analogue of human amylin; also called compound 79
